{"source": "paper PMC4433226", "key": {"[1]": {"target": "T1, Ku70/Ku80 wild type (UniProt P12956;P13010 1-609;1-732)", "T1 sequence (P12956 whole entry, chain 1 of 2)": "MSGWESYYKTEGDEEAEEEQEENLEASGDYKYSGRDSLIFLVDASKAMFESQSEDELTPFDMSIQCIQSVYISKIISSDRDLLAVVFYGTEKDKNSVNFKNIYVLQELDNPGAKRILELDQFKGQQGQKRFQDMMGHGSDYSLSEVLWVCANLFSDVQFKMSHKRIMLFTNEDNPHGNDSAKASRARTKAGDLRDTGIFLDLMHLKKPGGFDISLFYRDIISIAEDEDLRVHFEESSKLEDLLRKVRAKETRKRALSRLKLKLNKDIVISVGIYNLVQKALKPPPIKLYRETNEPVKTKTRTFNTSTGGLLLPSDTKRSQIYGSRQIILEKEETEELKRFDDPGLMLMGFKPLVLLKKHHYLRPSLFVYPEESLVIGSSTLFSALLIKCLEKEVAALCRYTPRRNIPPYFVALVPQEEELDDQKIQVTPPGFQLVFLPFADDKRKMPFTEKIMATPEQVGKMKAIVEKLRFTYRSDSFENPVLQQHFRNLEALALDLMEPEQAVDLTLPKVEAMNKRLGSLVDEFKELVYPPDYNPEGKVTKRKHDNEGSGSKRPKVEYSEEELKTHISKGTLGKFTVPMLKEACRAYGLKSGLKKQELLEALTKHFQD", "T1 sequence (P13010 whole entry, chain 2 of 2)": "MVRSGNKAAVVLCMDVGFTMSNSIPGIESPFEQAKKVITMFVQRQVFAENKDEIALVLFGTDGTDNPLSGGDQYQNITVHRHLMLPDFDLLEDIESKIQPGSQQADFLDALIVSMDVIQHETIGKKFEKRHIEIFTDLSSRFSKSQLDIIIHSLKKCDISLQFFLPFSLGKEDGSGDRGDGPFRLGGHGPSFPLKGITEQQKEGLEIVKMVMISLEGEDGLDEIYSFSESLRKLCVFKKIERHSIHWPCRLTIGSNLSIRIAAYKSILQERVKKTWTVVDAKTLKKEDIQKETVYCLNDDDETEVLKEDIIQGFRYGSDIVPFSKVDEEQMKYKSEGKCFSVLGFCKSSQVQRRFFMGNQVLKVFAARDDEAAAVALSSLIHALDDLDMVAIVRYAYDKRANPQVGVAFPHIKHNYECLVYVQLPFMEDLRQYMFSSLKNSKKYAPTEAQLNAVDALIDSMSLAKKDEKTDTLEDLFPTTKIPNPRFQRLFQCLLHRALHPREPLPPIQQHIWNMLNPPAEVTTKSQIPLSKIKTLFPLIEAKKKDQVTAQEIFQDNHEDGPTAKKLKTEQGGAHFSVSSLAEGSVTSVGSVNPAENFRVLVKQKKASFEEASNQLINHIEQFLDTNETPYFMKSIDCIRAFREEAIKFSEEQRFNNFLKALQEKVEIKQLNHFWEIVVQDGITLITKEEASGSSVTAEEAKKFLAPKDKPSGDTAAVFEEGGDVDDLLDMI", "assay": "EMSA; 1 and 2 Ku per DNA, preference for 2; ELISA: 20 mM HEPES pH 7.5, 75 mM KCl, 10% glycerol, 0.005% Triton X-100, 2 mM DTT, room temperature, 1 h, 2 pmol DNA, 424 ng DNA-PKcs; EMSA: 20 ul, 500 fmol DNA, buffer as in earlier papers", "conditions": "protein: recombinant; tags: His (Ku70); copies: 1;1; blunt"}, "[2]": {"target": "T2, Ku70/Ku80 wild type;DNA-PKcs (human?;human (HeLa cells), UniProt P12956;P13010;P78527 1-609;1-732;1-4128, |)", "assay": "ELISA; more than double the 30bp and 400bp recruitment (Fig 4C); ELISA: 20 mM HEPES pH 7.5, 75 mM KCl, 10% glycerol, 0.005% Triton X-100, 2 mM DTT, room temperature, 1 h, 2 pmol DNA, 424 ng DNA-PKcs; EMSA: 20 ul, 500 fmol DNA, buffer as in earlier papers", "conditions": "protein: recombinant;native; tags: His (Ku70);; copies: 1;1;1; label: 5' biotin on one end; blunt"}, "[3]": {"target": "T1, Ku70/Ku80 wild type", "assay": "EMSA; primarily 1:1 Ku:DNA; ELISA: 20 mM HEPES pH 7.5, 75 mM KCl, 10% glycerol, 0.005% Triton X-100, 2 mM DTT, room temperature, 1 h, 2 pmol DNA, 424 ng DNA-PKcs; EMSA: 20 ul, 500 fmol DNA, buffer as in earlier papers", "conditions": "protein: recombinant; tags: His (Ku70); copies: 1;1; blunt"}, "[4]": {"target": "T2, Ku70/Ku80 wild type;DNA-PKcs", "assay": "ELISA; ELISA: 20 mM HEPES pH 7.5, 75 mM KCl, 10% glycerol, 0.005% Triton X-100, 2 mM DTT, room temperature, 1 h, 2 pmol DNA, 424 ng DNA-PKcs; EMSA: 20 ul, 500 fmol DNA, buffer as in earlier papers", "conditions": "protein: recombinant;native; tags: His (Ku70);; copies: 1;1;1; label: 5' biotin on one end; blunt"}}, "data": [{"binder": "60bp blunt (EMSA) (dsDNA) DNA 1: CTTGACCAGTAGTCTAGCACGTGACGATTGCATGCGTCAAGTAAGATGCAGATACTTAAC DNA 2: GTTAAGTATCTGCATCTTACTTGACGCATGCAATCGTCACGTGCTAGACTACTGGTCAAG", "values": [{"measurement": "binding result", "setting": "[1]", "value": "binds"}]}, {"binder": "60bp blunt, biotinylated (dsDNA) DNA 1: CTTGACCAGTAGTCTAGCACGTGACGATTGCATGCGTCAAGTAAGATGCAGATACTTAAC DNA 2: GTTAAGTATCTGCATCTTACTTGACGCATGCAATCGTCACGTGCTAGACTACTGGTCAAG", "values": [{"measurement": "binding signal", "setting": "[2]", "value": "> 4 fold vs DNA-PKcs without Ku"}]}, {"binder": "30bp blunt (EMSA) (dsDNA) DNA 1: CACTTCCAACAGAGGTGACACTGCCTTCAG DNA 2: CTGAAGGCAGTGTCACCTCTGTTGGAAGTG", "values": [{"measurement": "binding result", "setting": "[3]", "value": "binds"}]}, {"binder": "30bp blunt, biotinylated (dsDNA) DNA 1: CACTTCCAACAGAGGTGACACTGCCTTCAG DNA 2: CTGAAGGCAGTGTCACCTCTGTTGGAAGTG", "values": [{"measurement": "binding signal", "setting": "[4]", "value": "> 4 fold vs DNA-PKcs without Ku"}]}]}
